Assay results from PMC4856209 (Nature methods, 2016).
No end group written: not given here.

B2: outer membrane porin OmpF (natural protein)
chain: AEIYNKDGNKVDLYGKAVGLHYFSKGNGENSYGGNGDMTYARLGFKGETQINSDLTGYGQWEYNFQGNNSEGADAQTGNKTRLAFAGLKYADVGSFDYGRNYGVVYDALGYTDMLPEFGGDTAYSDDFFVGRVGGVATYRNSNFFGLVDGLNFAVQYLGKNERDTARRSNGDGVGGSISYEYEGFGIVGAYGAADRTNLQEAQPLGNGKKAEQWATGLKYDANNIYLAANYGETRNATPITNKFTNTSGFANKTQDVLLVAQYQFDFGLRPSIAYTKSKAKDVEGIGDVDLVNYFEVGATYYFNKNMSTYVDYIINQIDSDNKLGVGSDDTVAVGIVYQF

Legend:
Assay in all cases: native MS
[1] = biological target: Vibrio sp. N418 semiSWEET (Vibrio sp. N418)
[2] = biological target: the molecule itself
[3] = biological target: B2

Molecule: Vibrio sp. N418 semiSWEET (natural protein)
- stoichiometry N [1]: 2

B1: pentameric ligand-gated ion channel ELIC (natural protein)
chain: APADNAADARPVDVSVSIFINKIYGVNTLEQTYKVDGYIVAQWTGKPRKTPGDKPLIVENTQIERWINNGLWVPALEFINVVGSPDTGNKRLMLFPDGRVIYNARFLGSFSNDMDFRLFPFDRQQFVLELEPFSYNNQQLRFSDIQVYTENIDNEEIDEWWIRKASTHISDIRYDHLSSVQPNQNEFSRITVRIDAVRNPSYYLWSFILPLGLIIAASWSVFWLESFSERLQTSFTLMLTVVAYAFYTSNILPRLPYTTVIDQMIIAGYGSIFAAILLIIFAHHRQAMGVEDDLLIQRCRLAFPLGFLAIGCVLVIRGITL
- stoichiometry N [2]: 5

Molecule: B2
- stoichiometry N [2]: 3

B3: OBS1 peptide (peptide mimic of colicin OmpF Binding Sequence 1) (peptide)
peptide: SGGDGRGHNTGAHSTSG-NH2
- Kd [3]: 690 nM
- stoichiometry N [3]: 3
